Assay results: article PMC9795039, “Kindlin2 enables EphB/ephrinB bi-directional signaling to support vascular development” (Life Science Alliance, 2022)

B1: his-tagged human full-length kindlin2 [human] / his/Avi-tagged cytoplasmic tail of ephrinB2 WT [modified: biotinylated; biotinylated] [not stated] (parent complex)
chain 1: MALDGIRMPDGCYADGTWELSVHVTDLNRDVTLRVTGEVHIGGVMLKLVEKLDVKKDWSDHALWWEKKRTWLLKTHWTLDKYGIQADAKLQFTPQHKLLRLQLPNMKYVKVKVNFSDRVFKAVSDICKTFNIRHPEELSLLKKPRDPTKKKKKKLDDQSEDEALELEGPLITPGSGSIYSSPGLYSKTMTPTYDAHDGSPLSPTSAWFGDSALSEGNPGILAVSQPITSPEILAKMFKPQALLDKAKINQGWLDSSRSLMEQDVKENEALLLRFKYYSFFDLNPKYDAIRINQLYEQAKWAILLEEIECTEEEMMMFAALQYHINKLSIMTSENHLNNSDKEVDEVDAALSDLEITLEGGKTSTILGDITSIPELADYIKVFKPKKLTLKGYKQYWCTFKDTSISCYKSKEESSGTPAHQMNLRGCEVTPDVNISGQKFNIKLLIPVAEGMNEIWLRCDNEKQYAHWMAACRLASKGKTMADSSYNLEVQNILSFLKMQHLNPDPQLIPEQITTDITPECLVSPRYLKKYKNKQITARILEAHQNVAQMSLIEAKMRFIQAWQSLPEFGITHFIARFQGGKKEELIGIAYNRLIRMDASTGDAIKTWRFSNMKQWNVNWEIKMVTVEFADEVRLSFICTEVDCKVVHEFIGGYIFLSTRAKDQNESLDEEMFYKLTSGWV
chain 2: KYRRRHRKHSPQHTTTLSLSTLATPKRSGNNNGSEPSDIIIPLRTADSVFCPHYEKVSGDYGHPVYIVQEMPPQSPANIYYKV

Variants of: B1
Experiment: in vitro binding assay (pulldown on NeutrAvidin beads, Western blot densitometry); purified kindlin2; n = 3; read off a plot

| Variant | percent of parent |
| --- | --- |
| chain 2 KYRRRHRKHSPQHTTTLSLSTLATPKRSGNNNGSEPSDIIIPLRTADSVFCPHYEKVSGDYGHPVYIVQEMPPQSPANIYAKV [chain 2 Y81A] | ~61 % WT |
| chain 2 KYRRRHRKHSPQHTTTLSLSTLATPKRSGNNNGSEPSDIIIPLRTADSVFCPHYEKVSGDYGHPVYIVQEMPPQSPAAIYYKV [chain 2 N78A] | ~107 % WT |
| chain 2 KYRRRHRKHSPQHTTTLSLSTLATPKRSGNNNGSEPSDIIIPLRTADSVFCPHYEKVSGDYGHPVYIVQEMPPQSPAAAAAKV [chain 2 N78A, chain 2 I79A, chain 2 Y80A, chain 2 Y81A] | ~14 % WT |
| chain 2 KYRRRHRKHSPQHTTTLSLSTLATPKRSGNNNGSEPSDIIIPLRTADSVFCPHYEKVSGDYGHPVYIVQEMPPQSPAAIYAKV [chain 2 N78A, chain 2 Y81A] | ~36 % WT |
| chain 2 KYRRRHRKHSPQHTTTLSLSTLATPKRSGNNNGSEPSDIIIPLRTADSVFCPHYEKVSGDYGHPVYIVQEMPPQAPANIYYKV [chain 2 S75A] | ~105 % WT |
